The record followed here is US20160272683A1 (Novo Nordisk, published 2016).

For the assay, the target named is T1, human calcitonin receptor (human, UniProt P30988 25-474).
T1 construct: whole, on cells; also called hCT-R; hCTR
T1 sequence (looked up): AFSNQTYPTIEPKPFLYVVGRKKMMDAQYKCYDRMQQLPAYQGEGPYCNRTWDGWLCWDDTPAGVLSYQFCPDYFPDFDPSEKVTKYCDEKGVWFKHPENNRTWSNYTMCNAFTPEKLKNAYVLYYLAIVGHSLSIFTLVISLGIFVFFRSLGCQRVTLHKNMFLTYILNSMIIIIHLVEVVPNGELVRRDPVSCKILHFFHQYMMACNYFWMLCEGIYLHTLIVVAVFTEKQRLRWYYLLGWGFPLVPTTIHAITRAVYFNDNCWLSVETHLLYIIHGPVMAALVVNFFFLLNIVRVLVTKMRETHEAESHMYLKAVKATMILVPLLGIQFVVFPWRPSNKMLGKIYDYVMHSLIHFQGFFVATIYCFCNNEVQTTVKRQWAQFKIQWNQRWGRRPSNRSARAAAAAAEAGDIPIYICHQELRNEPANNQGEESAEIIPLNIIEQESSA
Briefly: whole-cell competition vs 125I-human calcitonin (Assay VIIa). In short, it runs like this: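 BHK tk'ts 13 cells stably co-expressing human calcitonin receptor and a CRE-luciferase reporter, seeded overnight at 37 °C. Bound tracer counted by scintillation after cold HBSS washes and NaOH/SDS lysis; IC₅₀ from one-site competition fit taken as receptor affinity.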

Usually IC50 stands for the concentration that inhibits the measured activity by half.

Numbered stars: 1 amine (or outer) side, 2 acyl side, 3 side chain; on linkers, the order of the positions; unused ones are H or OH. * marks the point of attachment. C20 diacid = O=C(O)CCCCCCCCCCCCCCCCCCC(=O)*; C18 diacid = O=C(O)CCCCCCCCCCCCCCCCC(=O)*; γGlu = O=C(O)[C@H](CCC(=O)[*:2])N[*:1]; AEEA = NCCOCCOCC(=O)O

B1: [N-terminal(C20 diacid-gGlu), des1, 23Y, 30S, 31G, 34G, C-terminal(-)]mimylin (peptide)
peptide: {C20 diacid-γGlu}-ASELSTAALGRLSAELHELATYPRTETGSGSPG-OH
SMILES: CC(C)C[C@H](NC(=O)[C@H](C)NC(=O)[C@H](C)NC(=O)[C@@H](NC(=O)[C@H](CO)NC(=O)[C@H](CC(C)C)NC(=O)[C@H](CCC(=O)O)NC(=O)[C@H](CO)NC(=O)[C@H](C)NC(=O)CC[C@H](NC(=O)CCCCCCCCCCCCCCCCCCC(=O)O)C(=O)O)[C@@H](C)O)C(=O)NCC(=O)N[C@@H](CCCNC(=N)N)C(=O)N[C@@H](CC(C)C)C(=O)N[C@@H](CO)C(=O)N[C@@H](C)C(=O)N[C@@H](CCC(=O)O)C(=O)N[C@@H](CC(C)C)C(=O)N[C@@H](Cc1c[nH]cn1)C(=O)N[C@@H](CCC(=O)O)C(=O)N[C@@H](CC(C)C)C(=O)N[C@@H](C)C(=O)N[C@H](C(=O)N[C@@H](Cc1ccc(O)cc1)C(=O)N1CCC[C@H]1C(=O)N[C@@H](CCCNC(=N)N)C(=O)N[C@H](C(=O)N[C@@H](CCC(=O)O)C(=O)N[C@H](C(=O)NCC(=O)N[C@@H](CO)C(=O)NCC(=O)N[C@@H](CO)C(=O)N1CCC[C@H]1C(=O)NCC(=O)O)[C@@H](C)O)[C@@H](C)O)[C@@H](C)O
notes: also called Ex. #89
Regarding B1, the IC50 was determined as 3.6 nM.

B2: [N-terminal(C20 diacid-gGlu), des1, 23Y, 30S, 31G, 34K, C-terminal(-)]mimylin (peptide)
peptide: {C20 diacid-γGlu}-ASELSTAALGRLSAELHELATYPRTETGSGSPK-OH
SMILES: CC(C)C[C@H](NC(=O)[C@H](C)NC(=O)[C@H](C)NC(=O)[C@@H](NC(=O)[C@H](CO)NC(=O)[C@H](CC(C)C)NC(=O)[C@H](CCC(=O)O)NC(=O)[C@H](CO)NC(=O)[C@H](C)NC(=O)CC[C@H](NC(=O)CCCCCCCCCCCCCCCCCCC(=O)O)C(=O)O)[C@@H](C)O)C(=O)NCC(=O)N[C@@H](CCCNC(=N)N)C(=O)N[C@@H](CC(C)C)C(=O)N[C@@H](CO)C(=O)N[C@@H](C)C(=O)N[C@@H](CCC(=O)O)C(=O)N[C@@H](CC(C)C)C(=O)N[C@@H](Cc1c[nH]cn1)C(=O)N[C@@H](CCC(=O)O)C(=O)N[C@@H](CC(C)C)C(=O)N[C@@H](C)C(=O)N[C@H](C(=O)N[C@@H](Cc1ccc(O)cc1)C(=O)N1CCC[C@H]1C(=O)N[C@@H](CCCNC(=N)N)C(=O)N[C@H](C(=O)N[C@@H](CCC(=O)O)C(=O)N[C@H](C(=O)NCC(=O)N[C@@H](CO)C(=O)NCC(=O)N[C@@H](CO)C(=O)N1CCC[C@H]1C(=O)N[C@@H](CCCCN)C(=O)O)[C@@H](C)O)[C@@H](C)O)[C@@H](C)O
notes: also called Ex. #90
Consider B2, for which the IC50 turned out to be 6.84 nM.

B3: [N-terminal(C18 diacid-gGlu-2xOEG), des1, 4G, 9V, 15Q, 21Q, 23Y, 30S, 31G, 32T, 33Y]mimylin (peptide)
peptide: {C18 diacid-γGlu-AEEA-AEEA}-ASGLSTAVLGRLSQELHELQTYPRTETGSGTY-NH2
SMILES: CC(C)C[C@H](NC(=O)CNC(=O)[C@H](CO)NC(=O)[C@H](C)NC(=O)COCCOCCNC(=O)COCCOCCNC(=O)CC[C@H](NC(=O)CCCCCCCCCCCCCCCCC(=O)O)C(=O)O)C(=O)N[C@@H](CO)C(=O)N[C@H](C(=O)N[C@@H](C)C(=O)N[C@H](C(=O)N[C@@H](CC(C)C)C(=O)NCC(=O)N[C@@H](CCCNC(=N)N)C(=O)N[C@@H](CC(C)C)C(=O)N[C@@H](CO)C(=O)N[C@@H](CCC(N)=O)C(=O)N[C@@H](CCC(=O)O)C(=O)N[C@@H](CC(C)C)C(=O)N[C@@H](Cc1c[nH]cn1)C(=O)N[C@@H](CCC(=O)O)C(=O)N[C@@H](CC(C)C)C(=O)N[C@@H](CCC(N)=O)C(=O)N[C@H](C(=O)N[C@@H](Cc1ccc(O)cc1)C(=O)N1CCC[C@H]1C(=O)N[C@@H](CCCNC(=N)N)C(=O)N[C@H](C(=O)N[C@@H](CCC(=O)O)C(=O)N[C@H](C(=O)NCC(=O)N[C@@H](CO)C(=O)NCC(=O)N[C@H](C(=O)N[C@@H](Cc1ccc(O)cc1)C(N)=O)[C@@H](C)O)[C@@H](C)O)[C@@H](C)O)[C@@H](C)O)C(C)C)[C@@H](C)O
notes: also called Ex. #121
Turning to B3, the IC50 amounted to 0.3 nM. The value for {C20 diacid-γGlu}-ASGLSTATLGRLSQELHELQTYPRTETGSGTY-NH2 [[N-terminal(C20 diacid-gGlu), des1, 4G, 9T, 15Q, 21Q, 23Y, 30S, 31G, 32T, 33Y]mimylin] was 0.312 nM.

B4: [N-terminal(C20 diacid-gGlu), des1, 2L, 4G, 9V, 21S, 23Y, 30S, 31G, 32T, 33Y]mimylin (peptide)
peptide: {C20 diacid-γGlu}-LSGLSTAVLGRLSAELHELSTYPRTETGSGTY-NH2
SMILES: CC(C)C[C@H](NC(=O)CC[C@H](NC(=O)CCCCCCCCCCCCCCCCCCC(=O)O)C(=O)O)C(=O)N[C@@H](CO)C(=O)NCC(=O)N[C@@H](CC(C)C)C(=O)N[C@@H](CO)C(=O)N[C@H](C(=O)N[C@@H](C)C(=O)N[C@H](C(=O)N[C@@H](CC(C)C)C(=O)NCC(=O)N[C@@H](CCCNC(=N)N)C(=O)N[C@@H](CC(C)C)C(=O)N[C@@H](CO)C(=O)N[C@@H](C)C(=O)N[C@@H](CCC(=O)O)C(=O)N[C@@H](CC(C)C)C(=O)N[C@@H](Cc1c[nH]cn1)C(=O)N[C@@H](CCC(=O)O)C(=O)N[C@@H](CC(C)C)C(=O)N[C@@H](CO)C(=O)N[C@H](C(=O)N[C@@H](Cc1ccc(O)cc1)C(=O)N1CCC[C@H]1C(=O)N[C@@H](CCCNC(=N)N)C(=O)N[C@H](C(=O)N[C@@H](CCC(=O)O)C(=O)N[C@H](C(=O)NCC(=O)N[C@@H](CO)C(=O)NCC(=O)N[C@H](C(=O)N[C@@H](Cc1ccc(O)cc1)C(N)=O)[C@@H](C)O)[C@@H](C)O)[C@@H](C)O)[C@@H](C)O)C(C)C)[C@@H](C)O
Consider B4, for which the concentration for half-maximal inhibition (IC50) was determined as 5.62 nM.

B5: [N-terminal(C20 diacid-gGlu), des1, 4G, 9T, 15Q, 21Q, 23Y, 25P, 30S, 31G, 32T, 33Y]mimylin (peptide)
peptide: {C20 diacid-γGlu}-ASGLSTATLGRLSQELHELQTYPPTETGSGTY-NH2
SMILES: CC(C)C[C@H](NC(=O)CNC(=O)[C@H](CO)NC(=O)[C@H](C)NC(=O)CC[C@H](NC(=O)CCCCCCCCCCCCCCCCCCC(=O)O)C(=O)O)C(=O)N[C@@H](CO)C(=O)N[C@H](C(=O)N[C@@H](C)C(=O)N[C@H](C(=O)N[C@@H](CC(C)C)C(=O)NCC(=O)N[C@@H](CCCNC(=N)N)C(=O)N[C@@H](CC(C)C)C(=O)N[C@@H](CO)C(=O)N[C@@H](CCC(N)=O)C(=O)N[C@@H](CCC(=O)O)C(=O)N[C@@H](CC(C)C)C(=O)N[C@@H](Cc1c[nH]cn1)C(=O)N[C@@H](CCC(=O)O)C(=O)N[C@@H](CC(C)C)C(=O)N[C@@H](CCC(N)=O)C(=O)N[C@H](C(=O)N[C@@H](Cc1ccc(O)cc1)C(=O)N1CCC[C@H]1C(=O)N1CCC[C@H]1C(=O)N[C@H](C(=O)N[C@@H](CCC(=O)O)C(=O)N[C@H](C(=O)NCC(=O)N[C@@H](CO)C(=O)NCC(=O)N[C@H](C(=O)N[C@@H](Cc1ccc(O)cc1)C(N)=O)[C@@H](C)O)[C@@H](C)O)[C@@H](C)O)[C@@H](C)O)[C@@H](C)O)[C@@H](C)O
As for B5, the IC50 stood at 0.2 nM.

B6: [N-terminal(C20 diacid-gGlu), des1, 4G, 8L, 9V, 15Q, 21Q, 23Y, 30S, 31Q, 32T, 33Y]mimylin (peptide)
peptide: {C20 diacid-γGlu}-ASGLSTLVLGRLSQELHELQTYPRTETGSQTY-NH2
SMILES: CC(C)C[C@H](NC(=O)CNC(=O)[C@H](CO)NC(=O)[C@H](C)NC(=O)CC[C@H](NC(=O)CCCCCCCCCCCCCCCCCCC(=O)O)C(=O)O)C(=O)N[C@@H](CO)C(=O)N[C@H](C(=O)N[C@@H](CC(C)C)C(=O)N[C@H](C(=O)N[C@@H](CC(C)C)C(=O)NCC(=O)N[C@@H](CCCNC(=N)N)C(=O)N[C@@H](CC(C)C)C(=O)N[C@@H](CO)C(=O)N[C@@H](CCC(N)=O)C(=O)N[C@@H](CCC(=O)O)C(=O)N[C@@H](CC(C)C)C(=O)N[C@@H](Cc1c[nH]cn1)C(=O)N[C@@H](CCC(=O)O)C(=O)N[C@@H](CC(C)C)C(=O)N[C@@H](CCC(N)=O)C(=O)N[C@H](C(=O)N[C@@H](Cc1ccc(O)cc1)C(=O)N1CCC[C@H]1C(=O)N[C@@H](CCCNC(=N)N)C(=O)N[C@H](C(=O)N[C@@H](CCC(=O)O)C(=O)N[C@H](C(=O)NCC(=O)N[C@@H](CO)C(=O)N[C@@H](CCC(N)=O)C(=O)N[C@H](C(=O)N[C@@H](Cc1ccc(O)cc1)C(N)=O)[C@@H](C)O)[C@@H](C)O)[C@@H](C)O)[C@@H](C)O)C(C)C)[C@@H](C)O
With B6, the IC50 turned out to be 1.83 nM.

B7: [N-terminal(C20 diacid), des1, 4G, 15Q, 21Q, 23Y, 30S, 31G, 32T, 33Y]mimylin (peptide)
peptide: {C20 diacid}-ASGLSTAALGRLSQELHELQTYPRTETGSGTY-NH2
SMILES: CC(C)C[C@H](NC(=O)CNC(=O)[C@H](CO)NC(=O)[C@H](C)NC(=O)CCCCCCCCCCCCCCCCCCC(=O)O)C(=O)N[C@@H](CO)C(=O)N[C@H](C(=O)N[C@@H](C)C(=O)N[C@@H](C)C(=O)N[C@@H](CC(C)C)C(=O)NCC(=O)N[C@@H](CCCNC(=N)N)C(=O)N[C@@H](CC(C)C)C(=O)N[C@@H](CO)C(=O)N[C@@H](CCC(N)=O)C(=O)N[C@@H](CCC(=O)O)C(=O)N[C@@H](CC(C)C)C(=O)N[C@@H](Cc1c[nH]cn1)C(=O)N[C@@H](CCC(=O)O)C(=O)N[C@@H](CC(C)C)C(=O)N[C@@H](CCC(N)=O)C(=O)N[C@H](C(=O)N[C@@H](Cc1ccc(O)cc1)C(=O)N1CCC[C@H]1C(=O)N[C@@H](CCCNC(=N)N)C(=O)N[C@H](C(=O)N[C@@H](CCC(=O)O)C(=O)N[C@H](C(=O)NCC(=O)N[C@@H](CO)C(=O)NCC(=O)N[C@H](C(=O)N[C@@H](Cc1ccc(O)cc1)C(N)=O)[C@@H](C)O)[C@@H](C)O)[C@@H](C)O)[C@@H](C)O)[C@@H](C)O
As for B7, the half-inhibitory concentration (IC50) was determined as 0.747 nM.
